The target of test [1] is HLA-A*24:03. Kind of test: IEDB peptide-MHC binding, purified MHC/direct/fluorescence; filed as Kd, often an IC50 or EC50 that approximates it; ≥ and ≤ were set here for values at or beyond the usual limits of such assays.
The target in a further test is HLA-A*68:02. The description is as above.
The target of test [2] is HLA-B*15:01. The description is as above. Conditions: source organism: Itapua hantavirus.
For another test, the target named is HLA-A*02:03. The description is as above.
In test [3] the target is HLA-A*03:01. Described as above.
The next test concerns the target HLA-A*02:19. Described as above.
For test [4], the target named is HLA-A*02:12. Described as above.
In another test the target is HLA-A*02:16. The test is described as above.
In a further test the target is HLA-A*02:11. Described as above.
Another test concerns the target HLA-B*15:17. Kind of test: IEDB peptide-MHC binding, purified MHC/competitive/fluorescence; filed as Kd, often an IC50 or EC50 that approximates it; ≥ and ≤ were set here for values at or beyond the usual limits of such assays.
Test [5] addresses HLA-A*02:01. Described as above.
Another test deals with HLA-B*27:03. The description is as above.
For a further test, the target named is HLA-B*18:01. Described as above.
The target in another test is HLA-B*51:01. Described as above.
The next test deals with HLA-A*69:01. The test is described as above.
A further test deals with HLA-B*39:01. Described as above.
Another test addresses HLA-B*46:01. The description is as above.
The target of another test is HLA-B*57:01. Described as above.
Test [6] concerns the target HLA-A*03:01. Kind of test: IEDB peptide-MHC binding, purified MHC/competitive/fluorescence; ≥ and ≤ were set here for values at or beyond the usual limits of such assays.
Test [7] addresses HLA-A*11:01. The description is as above.
For test [8], the target named is HLA-A*03:01. Kind of test: IEDB peptide-MHC binding, purified MHC/competitive/fluorescence; filed as Kd, often an IC50 or EC50 that approximates it; ≥ and ≤ were set here for values at or beyond the usual limits of such assays. Conditions: source organism: Encephalitozoon cuniculi GB-M1.
Test [9] deals with HLA-A*11:01. The description is as above.
The target of another test is HLA-A*31:01. Described as above. Conditions: source organism: Encephalitozoon cuniculi GB-M1.
The next test addresses HLA-A*01:01. The test is described as above.
Another test concerns the target HLA-A*29:02. Kind of test: IEDB peptide-MHC binding, purified MHC/direct/fluorescence; filed as Kd, often an IC50 or EC50 that approximates it; ≥ and ≤ were set here for values at or beyond the usual limits of such assays.
Test [10] deals with HLA-A*26:01. The test is described as above. The settings on record: source organism: Hantavirus Monongahela-3.
Test [11] concerns the target HLA-A*24:03. Kind of test: IEDB peptide-MHC binding, purified MHC/competitive/fluorescence; filed as Kd, often an IC50 or EC50 that approximates it; ≥ and ≤ were set here for values at or beyond the usual limits of such assays. Conditions: source organism: Lechiguanas virus.
The target of test [12] is HLA-A*26:01. The test is described as above.
The target in test [13] is HLA-A*02:01. In words: IEDB peptide-MHC binding, purified MHC/competitive/fluorescence; ≥ and ≤ were set here for values at or beyond the usual limits of such assays.
Test [14] has as its target HLA-A*02:12. In words: IEDB peptide-MHC binding, purified MHC/competitive/fluorescence; filed as Kd, often an IC50 or EC50 that approximates it; ≥ and ≤ were set here for values at or beyond the usual limits of such assays. The settings on record: source organism: Shigella dysenteriae Sd197.
The target in test [15] is HLA-B*15:01. Kind of test: IEDB peptide-MHC binding, purified MHC/competitive/fluorescence; ≥ and ≤ were set here for values at or beyond the usual limits of such assays. The settings on record: source organism: Sudan ebolavirus.
The mark [16] stands for this setting: source organism: Araucaria virus.
The mark [17] stands for this setting: source organism: Vaccinia virus WR.
Setting [18] is: source organism: Zaire ebolavirus.
[19] abbreviates: source organism: New York virus.
Where [20] appears, read: source organism: Sudan ebolavirus.
Setting [21] is: source organism: Rio Mamore hantavirus.
[22] abbreviates: source organism: Lechiguanas virus.
Setting [23] is: source organism: Salmonella enterica subsp. enterica serovar Typhi.
The mark [24] stands for this setting: source organism: Vaccinia virus.

Take AFMATNKAY: the Kd with HLA-A*24:03 [1] (setting [16]) is not below 20 µM; with HLA-A*68:02 (setting [16]), not below 20 µM; with HLA-B*15:01 [2] it was 0.0944 µM; in the test with HLA-A*02:03 (setting [16]) it was not below 20 µM; with HLA-A*03:01 [3] (setting [16]), not below 20 µM; in the test with HLA-A*02:19 (setting [16]) it was not below 20 µM. Besides, the Kd in the test with HLA-A*02:12 [4] (setting [16]), in the test with HLA-A*02:16 (setting [16]), with HLA-A*02:11 (setting [16]), with HLA-B*15:17 (setting [16]), with HLA-A*02:01 [5] (setting [16]) and with HLA-B*27:03 (setting [16]) was not below 20 µM throughout. For the same sequence, the Kd in the test with HLA-B*18:01 (setting [16]), with HLA-B*51:01 (setting [16]), with HLA-A*69:01 (setting [16]), with HLA-B*39:01 (setting [16]), in the test with HLA-B*46:01 (setting [16]) and with HLA-B*57:01 (setting [16]) was not below 20 µM each time.
As to AFYTRVLKP, the IC50 was not below 202 µM in the test with HLA-A*03:01 [6] (setting [17]) and 24.2 µM in the test with HLA-A*11:01 [7] (setting [17]).
Regarding AGLITGGRR, the IC50 was found to be 69.9 µM with HLA-A*03:01 [6] (setting [18]) and 6.55 µM with HLA-A*11:01 [7] (setting [18]).
In the case of CVNDGGLFY, the Kd with HLA-A*03:01 [8] came out at 1.01 µM; with HLA-A*11:01 [9] (source organism: Encephalitozoon cuniculi GB-M1), 0.11 µM; with HLA-A*31:01, 0.692 µM.
For the sequence FTDPEIVAE, the Kd in the test with HLA-A*01:01 (source organism: Escherichia coli O139:H28 str. E24377A) was not below 20 µM.
As to FVKDWMDRI, the Kd is not below 20 µM with HLA-A*24:03 [1] (source organism: Choclo virus); not below 20 µM with HLA-A*29:02 (source organism: Choclo virus); not below 20 µM with HLA-A*03:01 [3] (source organism: Choclo virus); not below 20 µM with HLA-A*02:19 (source organism: Choclo virus); 0.0656 µM in the test with HLA-A*26:01 [10]; not below 20 µM in the test with HLA-A*02:12 [4] (source organism: Choclo virus). In addition, the Kd with HLA-A*02:16 (source organism: Choclo virus), in the test with HLA-B*15:17 (setting [19]), with HLA-A*02:01 [5] (setting [19]), with HLA-B*27:03 (setting [19]), with HLA-B*18:01 (setting [19]) and with HLA-B*51:01 (setting [19]) was not below 20 µM each time. Further, the dissociation constant Kd in the test with HLA-A*69:01 (setting [19]), in the test with HLA-B*39:01 (setting [19]), in the test with HLA-B*46:01 (setting [19]) and in the test with HLA-B*57:01 (setting [19]) was not below 20 µM throughout.
In the case of GVRGFPRCR, the IC50 with HLA-A*03:01 [6] (setting [20]) was found to be 1.12 µM; in the test with HLA-A*11:01 [7] (setting [20]), 33.2 µM.
As to ITDRLFFK, the Kd with HLA-A*11:01 [9] (source organism: Influenza A virus (A/California/04/2009(H1N1))) is 0.175 µM.
Take LQPSDTLLF: the Kd in the test with HLA-A*68:02 (setting [21]), with HLA-A*02:03 (setting [21]), in the test with HLA-A*29:02 (setting [21]), with HLA-A*03:01 [3] (setting [21]), in the test with HLA-A*02:19 (setting [21]) and with HLA-A*02:12 [4] (setting [21]) was not below 20 µM in each case. Moreover, the dissociation constant (Kd) was not below 20 µM with HLA-A*02:16 (setting [21]); not below 20 µM with HLA-A*02:11 (setting [21]); 0.0049 µM with HLA-A*24:03 [11]; not below 20 µM with HLA-B*15:17 (setting [22]); not below 20 µM in the test with HLA-A*02:01 [5] (setting [22]); not below 20 µM in the test with HLA-B*27:03 (setting [22]). The dissociation constant (Kd) in the test with HLA-B*18:01 (setting [22]), in the test with HLA-B*51:01 (setting [22]), with HLA-A*69:01 (setting [22]), with HLA-A*26:01 [12] (setting [22]), with HLA-B*39:01 (setting [22]) and with HLA-B*46:01 (setting [22]) was not below 20 µM each time. In the test with HLA-B*57:01 (setting [22]), the Kd was not below 20 µM.
Turning to MVAYMLER, in the test with HLA-A*11:01 [9] (source organism: Paramagnetospirillum magnetotacticum MS-1), the Kd came to 3.25 µM. That is a single-digit micromolar value.
On to MVEASGGRY, for which the dissociation constant (Kd) with HLA-A*01:01 (setting [23]) was 0.122 µM; with HLA-A*26:01 [12] (setting [23]) it was 1.42 µM.
SLMEMDYER: the IC50 was 2.2 µM with HLA-A*02:01 [13] (setting [24]), not below 155 µM in the test with HLA-A*03:01 [6] (setting [24]) and 1.9 µM in the test with HLA-A*11:01 [7] (setting [24]).
Consider SMIYFFHHY, for which the Kd with HLA-A*01:01 (source organism: Homo sapiens) was not below 20 µM.
On to SVFSRPLPL, for which the dissociation constant (Kd) is not above 0.0001 µM in the test with HLA-A*02:01 [5] (source organism: Shigella dysenteriae Sd197) and 0.184 µM with HLA-A*02:12 [14].
Regarding TQVEQHHRR, the IC50 with HLA-A*03:01 [6] (setting [18]) was not below 138 µM; in the test with HLA-A*11:01 [7] (setting [18]), 1.67 µM.
VIYRGVNFA: the half-maximal inhibitory concentration (IC50) is not below 89.1 µM with HLA-B*15:01 [15], 3.89 µM in the test with HLA-A*02:01 [13] (setting [20]), 5.02 µM in the test with HLA-A*03:01 [6] (setting [20]) and 25.1 µM with HLA-A*11:01 [7] (setting [20]).

One may read the Kd as the equilibrium constant for the complex coming apart. In general, IC50 refers to the concentration that gives 50% inhibition. Read a high IC50 as a need for much substance.

(Values after the Immune Epitope Database (IEDB).)
